Values quoted from earlier work in PMC4166121.

Biological target: p38 MAPK (UniProt Q16539)
Sequence (Q16539 2-360): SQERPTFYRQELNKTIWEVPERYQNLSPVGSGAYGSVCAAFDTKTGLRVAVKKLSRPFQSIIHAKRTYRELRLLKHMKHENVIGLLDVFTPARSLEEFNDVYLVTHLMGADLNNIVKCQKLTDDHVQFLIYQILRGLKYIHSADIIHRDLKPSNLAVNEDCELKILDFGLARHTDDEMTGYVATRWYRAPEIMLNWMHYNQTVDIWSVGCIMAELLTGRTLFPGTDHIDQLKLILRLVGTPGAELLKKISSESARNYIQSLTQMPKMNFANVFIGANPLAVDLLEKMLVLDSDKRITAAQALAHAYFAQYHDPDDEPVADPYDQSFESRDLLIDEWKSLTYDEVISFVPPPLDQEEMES

eNOS, sequence (P29474 2-1203): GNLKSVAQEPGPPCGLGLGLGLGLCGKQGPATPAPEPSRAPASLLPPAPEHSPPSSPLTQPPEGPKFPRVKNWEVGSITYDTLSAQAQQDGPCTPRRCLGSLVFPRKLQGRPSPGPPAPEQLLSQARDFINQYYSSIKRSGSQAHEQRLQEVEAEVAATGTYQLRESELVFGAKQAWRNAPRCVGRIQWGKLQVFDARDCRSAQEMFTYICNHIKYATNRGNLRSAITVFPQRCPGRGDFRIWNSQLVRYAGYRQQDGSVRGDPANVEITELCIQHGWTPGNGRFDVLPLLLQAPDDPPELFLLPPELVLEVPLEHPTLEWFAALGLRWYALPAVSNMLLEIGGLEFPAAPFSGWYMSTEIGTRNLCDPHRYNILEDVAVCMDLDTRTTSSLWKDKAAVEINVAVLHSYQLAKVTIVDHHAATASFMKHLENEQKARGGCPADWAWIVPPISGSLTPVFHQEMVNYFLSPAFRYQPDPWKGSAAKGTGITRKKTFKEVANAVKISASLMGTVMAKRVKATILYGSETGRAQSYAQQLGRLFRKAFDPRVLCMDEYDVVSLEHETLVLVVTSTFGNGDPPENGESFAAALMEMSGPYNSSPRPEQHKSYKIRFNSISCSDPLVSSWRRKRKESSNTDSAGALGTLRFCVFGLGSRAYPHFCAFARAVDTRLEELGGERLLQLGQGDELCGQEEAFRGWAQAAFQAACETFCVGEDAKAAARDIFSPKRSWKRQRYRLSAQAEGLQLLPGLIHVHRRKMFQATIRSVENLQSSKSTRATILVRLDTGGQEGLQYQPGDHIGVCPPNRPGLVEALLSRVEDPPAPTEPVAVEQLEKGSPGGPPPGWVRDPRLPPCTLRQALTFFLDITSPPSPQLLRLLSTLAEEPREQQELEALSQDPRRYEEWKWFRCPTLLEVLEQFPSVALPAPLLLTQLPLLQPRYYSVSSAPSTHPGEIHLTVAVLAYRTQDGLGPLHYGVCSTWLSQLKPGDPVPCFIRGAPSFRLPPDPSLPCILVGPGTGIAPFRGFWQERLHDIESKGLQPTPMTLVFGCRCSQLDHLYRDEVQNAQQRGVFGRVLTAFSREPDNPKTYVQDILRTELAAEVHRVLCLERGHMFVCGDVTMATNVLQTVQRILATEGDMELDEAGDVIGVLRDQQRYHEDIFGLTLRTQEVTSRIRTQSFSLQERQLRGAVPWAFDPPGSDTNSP

In the case of eNOS (from UniProt P29474), the Kd is given as 0.08 nM.
